In US8357523B2, “Beta-glucosidase variant enzymes and related polynucleotides” (Codexis, Inc., priority 2009, dated 2013):
Numbering of substitutions follows the chain as printed.

B1: 14 (protein)
chain: STAIAQEGAAPAAILHPEKWPRPATQRLIDPAVEKRVDALLKQLSVEEKVGQVIQGDIGTITPEDLRKYPLGSILAGGNSGPNGDDRAPPKEWLDLADAFYRVSLEKRPGHTPIPVLFGIDAVHGHGNIGSATIFPHNIALGATHSPELLRRIGEVTAVEMAATGIDWTFAPALSVVRDDRWGRTYEGFSEDPEIVAAYSAAIVEGVQGKFGSKDFMAPGRIVASAKHFLADGGTDQGRDQGDARISEDELIRIHNAGYPPAIDAGVLTVMASFSSWQGIKHHGHKQLLTDVLKGQMGFNGFIVGDWNAHDQVPGCTKFNCPTSLIAGLDMYMAADSWKQLYENTLAQVKDGTIPMARLDDAVRRILRVKVLAGLFEKPAPKDRPGLPGLETLGSPEHRAVGREAVRKSLVLLKNDKGTLPLSPKARVLVAGDGADNIGKQSGGWTISWQGTGNRNDEFPGATSILGGIRDAVADAGGSVEFDVAGQYKTKPDVAIVVFGEEPYAEFQGDVETLEYQPDQKQDLALLKKLKDQGIPVVAVFLSGRPMWVNPELNASDAFVAAWLPGTEGGGVADVLFTDKAGKVQHDFAGKLSYSWPRTAAQTTVNRGDADYNPLFAYGYGLTYKDKSKVGTLPEESGVPAEARQNAGIYFRAGALRLPGRFL
B2: 24 (protein)
chain: B1 chain with S146D, P219V
B3: 18 (protein)
chain: B1 chain with S146D, V159A
B4: 17 (protein)
chain: B1 chain with S146D, P219M
B5: 16 (protein)
chain: B1 chain with S146D, A198S
B6: 21 (protein)
chain: B1 chain with S146D, V159Q
B7: 22 (protein)
chain: B1 chain with S146D, V159I
B8: 19 (protein)
chain: B1 chain with S146D, A198L
B9: 25 (protein)
chain: B1 chain with S146D, R151P
B10: 26 (protein)
chain: B1 chain with S146D, A202F
B11: 20 (protein)
chain: B1 chain with S146D, A198N
B12: 23 (protein)
chain: B1 chain with S146D, A202P
B13: 15 (protein)
chain: B1 chain with S146D, R151P

Experiment: High throughput cellobiose assay: fold improvement in cellobiase activity of CelA variants over a control enzyme (Tables 2A-2D, 3, 5, 6, 7)
Type: biochemical
Details: 3.3 g/l cellobiose, 50° C. and pH 6.5; compared to native CelA (SEQ ID NO: 4)
Protocol: β-glucosidase activity was also determined using a cellobiose assay, which used cellobiose as substrate. In a total volume of 100 μL, 25 μL clear media supernatant containing CelA enzyme was added to 10 g/L cellobiose (Fluka Cat. No. 22150, Sigma-Aldrich, Inc., St. Louis, Mo.) in 100 mM sodium phosphate buffer (pH 6-7) or sodium acetate buffer (pH 5-5.5). The reaction was incubated at 45-70° C. for an appropriate time (25 minutes to overnight depending on the enzyme concentration) while shaking. Glucose production was determined using an enzymatic glucose assay (K-GLUC, Megazyme, Ireland). 10 μl of each reaction was added to 190 μl GOPOD reagent (supplied as part of the K-GLUC assay kit). The reaction was incubated at 45° C. for 20 minutes and the absorbance of the solution was measured at 510 nm. The GOPOD reagent contains 50 mM Potassium phosphate buffer pH7.4, 0.011M p-hydroxybenzoic acid, 0.008% w/v sodium azide, glucose oxidase (>12,000 U/L), peroxidase (>650 U/L) and 80 mg/L 4-aminoantipyrine. The glucose oxidase enzyme in the reagent reacts with any glucose present in the sample and produces hydrogen peroxide which then reacts with the 4-aminoantipyrine to produce a quinoneimine dye in quantities proportionate with the amount of glucose present and can be measured spectrophotometrically at 510 nm. Detectable β-glucosidase activity was observed under high throughput screening conditions (i.e., pH 7, 50° C.).
Plasmid libraries containing variant CelA genes were transformed into B. megaterium and plated on Luria-Bertani (LB) agar plates containing 3 μg/mL tetracycline with a DM3 regeneration media overlay (400 mM sodium succinate dibasic, pH 7.3, 0.5% casamino acids, 0.5% yeast extract, 0.4% K2HPO4, 0.2% KH2PO4, 20 mM MgCl2, 0.5% glucose and 0.2% BSA). After incubation for at least 18 hours at 30° C., colonies were picked using a Q-bot® robotic colony picker (Genetix USA, Inc., Beaverton, Oreg.) into shallow, 96-well well microtiter plates containing 180 μL, LB and 10 μg/mL tetracycline. Cells were grown overnight at 37° C. with shaking at 200 rpm and 85% humidity. 10 μL of this culture was then transferred into 96-well microtiter plates (deep well) containing 390 μL A5-glucose-xylose medium and 10 μg/mL tetracycline as described in example 2. The plates were then incubated at 37° C. with shaking at 250 rpm and 85% humidity overnight (˜18-24 hours). The deep plates were centrifuged at 4000 rpm for 15 minutes and the clear media supernatant containing the secreted CelA enzyme was used for the high throughput pNPG or cellobiose assay of Example 5.
The CelA libraries were screened in high throughput using the cellobiose assay of Example 5 (Substrate: cellobiose; pH: 5-7; temperature: 45-72° C.; time: 2-24 hrs) for the identification of improved variants.
In shallow, 96-well microtiter plates 25 μL of media supernatant was added to 75 μL of […] cellobiose in 150 mM sodium acetate buffer pH 5-5.5 or 150 mM sodium phosphate buffer pH6-7. After sealing with aluminum/polypropylene laminate heat seal tape (Velocity 11 (Menlo Park, Calif.), Cat#06643-001), the plates were shaken at 45-65° C. for up to 24 hrs. The plates were centrifuged for 5 minutes at 4000 rpm. In shallow well clear microtiter plates, 10 μL of the reaction mixture was added to 190 μL of GOPOD reagent (as in example 5B) per well. The solutions were incubated at 45° C. for 1 hour and absorbance was measured at 510 nm for the identification of active CelA variants.
Improved CelA variants were identified from the high throughput screening of various CelA variant libraries as described in Example 7, using the cellobiose assay of Example 5 using 3.3 g/l cellobiose at temperatures from 50°-55° C. at a pH in the range of 5.3-6.5. Tables 2A, 2B, 2C, and 2D and Table 3 depict the improvement in activities of CelA variants encompassed by the invention. The assay conditions are indicated in each table. […]

Molecule	Fold improvement over wildtype CelA
B1	++ (++ = 2.1 to 2.6 fold improvement over native CelA (SEQ ID NO: 4))
B2	+ (+ = 1.1 to 2.0 fold improvement over native CelA (SEQ ID NO: 4))
B3	+ (+ = 1.1 to 2.0 fold improvement over native CelA (SEQ ID NO: 4))
B4	+ (+ = 1.1 to 2.0 fold improvement over native CelA (SEQ ID NO: 4))
B5	+ (+ = 1.1 to 2.0 fold improvement over native CelA (SEQ ID NO: 4))
B6	+ (+ = 1.1 to 2.0 fold improvement over native CelA (SEQ ID NO: 4))
B7	+ (+ = 1.1 to 2.0 fold improvement over native CelA (SEQ ID NO: 4))
B8	+ (+ = 1.1 to 2.0 fold improvement over native CelA (SEQ ID NO: 4))
B9	+ (+ = 1.1 to 2.0 fold improvement over native CelA (SEQ ID NO: 4))
B10	+ (+ = 1.1 to 2.0 fold improvement over native CelA (SEQ ID NO: 4))
B11	+ (+ = 1.1 to 2.0 fold improvement over native CelA (SEQ ID NO: 4))
B12	+ (+ = 1.1 to 2.0 fold improvement over native CelA (SEQ ID NO: 4))
B13	+ (+ = 1.1 to 2.0 fold improvement over native CelA (SEQ ID NO: 4))
